# In article PMC11300487, “C-phycocyanin reinforces autophagy to block pulmonary fibrogenesis by inhibiting lncIAPF biogenesis” (Archives of Pharmacal Research, 2024):
# B1: activating transcription factor 3 (natural protein, UniProt P18847 1-181, looked up)
# chain: MMLQHPGQVSASEVSASAIVPCLSPPGSLVFEDFANLTPFVKEELRFAIQNKHLCHRMSSALESVTVSDRPLGVSITKAEVAPEEDERKKRRRERNKIAAAKCRNKKKEKTECLQKESEKLESVNAELKAQIEELKNEKQHLIYMLNLHRPTCIVRAQNGRTPEDERNLFIQQIKEGTLQS
# notes: ATF3 as used in the SPR experiment; the ATF3 protein used there is not described; also called ATF3
# Target: T1, C-phycocyanin (Spirulina platensis, UniProt P72509 1-162; P72508 1-172)
# T1 construct: C-phycocyanin alpha subunit, Spirulina platensis; C-phycocyanin beta subunit, Spirulina platensis; the source organism is told in the introduction only; also called C-PC; source: bought: Aladdin, Shanghai
# Test: SPR; equilibrium dissociation constant; who was immobilised and the conditions not given
# Details: both partners purified
binder,measurement,value
B1,Kd,683 nM
